Measurements taken from PMC5814829.
Substitutions are numbered along the chain they refer to. Where two headings read alike, the source gives them in different places.

B1: F-G417 (structured_DNA)
DNA: AGGGTGGGTGGGTGGGT
B2: dsDNA16bp (dsDNA)
DNA 1: CTCTGCTCGACGGATT
DNA 2: AATCCGTCGAGCAGAG
B3: GR12 (ssDNA)
DNA: GTGTGTGTGGTG

Tests used:
Experiment in all cases: fluorescence anisotropy
ScPif1p E681G = target: T1, ScPif1p E681G (Saccharomyces cerevisiae, UniProt P07271 237-780, E681G)
T1 sequence: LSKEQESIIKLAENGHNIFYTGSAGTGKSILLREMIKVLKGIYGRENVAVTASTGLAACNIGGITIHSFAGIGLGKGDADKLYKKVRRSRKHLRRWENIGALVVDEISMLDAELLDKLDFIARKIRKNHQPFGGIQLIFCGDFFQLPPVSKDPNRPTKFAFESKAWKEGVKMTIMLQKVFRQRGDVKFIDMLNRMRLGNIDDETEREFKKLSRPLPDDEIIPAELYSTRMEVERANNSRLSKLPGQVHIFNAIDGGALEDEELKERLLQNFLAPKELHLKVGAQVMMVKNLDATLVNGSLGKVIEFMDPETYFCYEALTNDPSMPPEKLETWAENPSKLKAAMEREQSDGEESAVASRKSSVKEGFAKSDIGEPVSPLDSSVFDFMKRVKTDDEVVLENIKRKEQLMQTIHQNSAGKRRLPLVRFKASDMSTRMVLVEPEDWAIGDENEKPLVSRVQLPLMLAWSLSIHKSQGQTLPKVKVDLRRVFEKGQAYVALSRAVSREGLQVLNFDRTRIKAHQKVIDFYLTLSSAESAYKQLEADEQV

ScPif1p R326C = target: T2, ScPif1p R326C (Saccharomyces cerevisiae, UniProt P07271 237-780, R326C)
T2 sequence: T1 sequence with R90C, G445E

ScPif1p K363A = target: T3, ScPif1p K363A (Saccharomyces cerevisiae, UniProt P07271 237-780, K363A)
T3 sequence: T1 sequence with K127A, G445E

ScPif1p (237-780) [1] = target: T4, ScPif1p (237-780) (Saccharomyces cerevisiae, UniProt P07271 237-780)
T4 sequence: T1 sequence with G445E

ScPif1p (237-780) [2] = target: T4, ScPif1p (237-780); remark: listed apart in the source
ScPif1p (237-780) [3] = target: T4, ScPif1p (237-780); remark: listed apart in the source

Row | Binder | Kd (ScPif1p E681G) | Kd (ScPif1p R326C) | Kd (ScPif1p K363A) | Kd (ScPif1p (237-780) [1]) | Kd (ScPif1p (237-780) [2]) | Kd (ScPif1p (237-780) [3])
1 | B1 | 76.5 ± 10.5 nM | 105 ± 8.4 nM | 43.9 ± 2.2 nM | 25 ± 5.1 nM | – | –
2 | B2 | 56.1 ± 11.6 nM | 78.3 ± 9.6 nM | 72.3 ± 8.3 nM | – | 81.3 ± 10.3 nM | –
3 | B3 | 12.4 ± 3.9 nM | 12.4 ± 2.1 nM | 14.4 ± 1.3 nM | – | 11.2 ± 2.1 nM | 6.1 nM
